# Data as given in patent publication US20150274826A1 (ARCH ONCOLOGY, published 2015).
# T1: pig CD47 (pig, UniProt Q9GKE8 19-303)
# T1 construct: whole, on cells; also called CD47 on porcine RBCs
# T1 sequence (looked up): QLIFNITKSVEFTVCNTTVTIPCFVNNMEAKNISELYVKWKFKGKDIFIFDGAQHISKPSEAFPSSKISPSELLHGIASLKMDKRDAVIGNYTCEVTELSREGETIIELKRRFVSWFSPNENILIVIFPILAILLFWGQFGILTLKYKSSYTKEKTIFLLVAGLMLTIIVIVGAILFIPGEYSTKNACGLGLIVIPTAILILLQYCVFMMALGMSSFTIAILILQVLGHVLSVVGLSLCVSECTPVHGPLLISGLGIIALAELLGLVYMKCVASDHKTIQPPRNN
# T2: dog CD47 (dog, UniProt A0A8I3PM61 19-310)
# T2 construct: also called CD47 on dog RBCs
# T2 sequence: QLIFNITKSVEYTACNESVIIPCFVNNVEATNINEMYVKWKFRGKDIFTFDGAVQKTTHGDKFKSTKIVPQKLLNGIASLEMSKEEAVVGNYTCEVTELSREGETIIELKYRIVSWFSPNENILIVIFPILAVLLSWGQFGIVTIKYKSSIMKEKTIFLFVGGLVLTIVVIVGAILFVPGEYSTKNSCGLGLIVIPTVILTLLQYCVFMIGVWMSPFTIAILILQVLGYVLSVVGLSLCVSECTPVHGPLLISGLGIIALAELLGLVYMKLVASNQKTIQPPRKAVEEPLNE
# T3: rat CD47 (rat, UniProt P97829 19-303)
# T3 construct: whole, on cells; also called CD47 on rat RBCs
# T3 sequence (looked up): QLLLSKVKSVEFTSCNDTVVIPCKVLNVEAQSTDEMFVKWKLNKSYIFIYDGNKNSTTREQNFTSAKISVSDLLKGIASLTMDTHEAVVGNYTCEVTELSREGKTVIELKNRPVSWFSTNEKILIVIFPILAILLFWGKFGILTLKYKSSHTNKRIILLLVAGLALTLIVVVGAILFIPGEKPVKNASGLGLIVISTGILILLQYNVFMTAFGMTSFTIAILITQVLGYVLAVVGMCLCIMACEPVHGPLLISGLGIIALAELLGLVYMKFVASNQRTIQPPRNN
# T4: mouse CD47 (mouse, UniProt Q61735 19-303)
# T4 construct: whole, on cells; also called CD47 on mouse RBCs; CD47 on 4T1 cells
# T4 sequence (looked up): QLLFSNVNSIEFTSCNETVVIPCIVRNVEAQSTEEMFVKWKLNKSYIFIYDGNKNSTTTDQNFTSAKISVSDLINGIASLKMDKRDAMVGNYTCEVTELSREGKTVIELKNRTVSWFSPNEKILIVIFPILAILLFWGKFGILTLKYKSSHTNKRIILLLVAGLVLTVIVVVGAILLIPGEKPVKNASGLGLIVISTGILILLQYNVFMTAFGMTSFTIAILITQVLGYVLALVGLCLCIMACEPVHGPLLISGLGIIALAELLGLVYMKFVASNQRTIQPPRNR
# What was measured:
# Experiment in all cases: flow cytometry on RBCs, CHO supernatant 10 ng/ml
# [1] = target: T5, human CD47 (human, UniProt Q08722 19-323)
# T5 construct: whole, on cells; also called CD47 on human RBCs; CD47 on OV10 cells
# T5 sequence (Q08722 19-323): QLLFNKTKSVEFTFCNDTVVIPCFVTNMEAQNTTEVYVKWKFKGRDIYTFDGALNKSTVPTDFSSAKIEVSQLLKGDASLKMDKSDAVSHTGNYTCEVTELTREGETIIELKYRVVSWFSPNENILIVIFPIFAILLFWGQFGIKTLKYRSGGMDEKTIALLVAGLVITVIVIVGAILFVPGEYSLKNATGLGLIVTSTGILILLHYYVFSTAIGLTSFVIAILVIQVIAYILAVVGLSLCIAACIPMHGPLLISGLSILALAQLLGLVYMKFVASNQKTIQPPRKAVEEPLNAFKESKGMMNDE
# Protocol: (§1) RBCs are incubated for 60 minutes on ice with tissue culture supernatants containing the secreted humanized antibodies at a concentration of 10 ng/ml in a solution of phosphate buffered saline, pH 7.2, 2.5 mM EDTA (PBS+E), or with various concentrations of purified antibodies. Cells are then washed with cold PBS+E, and incubated for an additional hour on ice with FITC labeled donkey anti-human antibody (Jackson Immuno Research Labs, West Grove, Pa.; Catalogue #709-096-149) in PBS+E. Cells are then washed with PBS+E, and antibody binding is analyzed using a BD FACSAria Cell Sorter (Becton Dickinson) or a C6 Accuri Flow Cytometer (Becton Dickinson). Antibody binding is quantitated by comparison of mean fluorescence values relative to that of chimeric antibody >VxP037-01LC (SEQ ID NO:7))/>VxPO37-01HC (SEQ ID NO:57). The mean fluorescence value for each antibody is divided by the mean fluorescence value for the chimeric antibody.
# [2] = target: T1, pig CD47
# Protocol: as §1
# [3] = target: T2, dog CD47
# Protocol: as §1
# [4] = target: T3, rat CD47
# Protocol: as §1
# [5] = target: T4, mouse CD47
# Protocol: as §1
Binder,mean fluorescence relative to chimeric antibody [1] [ratio],mean fluorescence relative to chimeric antibody [2] [ratio],mean fluorescence relative to chimeric antibody [3] [ratio],mean fluorescence relative to chimeric antibody [4] [ratio],mean fluorescence relative to chimeric antibody [5] [ratio]
"Clone 16 (pVxK7b-037-hum16-LC / pVxK7b-037-hum16-HC) (antibody, human IgG1, kappa, V domains shown) VH: QVQLQESGPGLVKPSQTLSLTCTVSGYTFTNYYVFWVRQARGQRLEWIGDINPVNGDTNFNEKFKNRVTISADKSISTAYLQWSSLKASDTAMYYCARGGYTMDYWGQGTLVTVSS VL: AIQLTQSPSSLSASVGDRVTITCRSSQSLVHSNGNTYLHWYQQKPGQAPRLLIYKVSYRFSGVPDRFSGSGSGTDFTLKISRVEAEDVGVYYCSQNTHVPRTFGQGTKVEIKR",0.9,1.1,1.1,2.1,1
"Clone 5 (pVxK7b-037-hum05-LC / pVxK7b-037-hum05-HC) (antibody, human IgG1, kappa) heavy: not shown light: DIVMTQTPLSLPVTPGEPASISCRSSQSLVHSNGNTYLHWYLQKPGQSPQLLIYKVSYRFSGVPDRFSGSGSGTDFTLKISRVEAEDVGVYYCSQNTHVPRTFGQGTKVEIKRTVAAPSVFIFPPSDEQLKSGTASVVCLLNNFYPREAKVQWKVDNALQSGNSQESVTEQDSKDSTYSLSSTLTLSKADYEKHKVYACEVTHQGLSSPVTKSFNRGEC",1,1.2,1.1,2.2,1
"Clone 17 (pVxK7b-037-hum17-LC / pVxK7b-037-hum17-HC) (antibody, human IgG1, kappa) heavy: not shown light: AIQLTQSPSSLSASVGDRVTITCRSSQSLVHSNGNTYLHWYQQKPGQAPRLLIYKVSYRFSGVPDRFSGSGSGTDFTLKISRVEAEDVGVYYCSQNTHVPRTFGQGTKVEIKRTVAAPSVFIFPPSDEQLKSGTASVVCLLNNFYPREAKVQWKVDNALQSGNSQESVTEQDSKDSTYSLSSTLTLSKADYEKHKVYACEVTHQGLSSPVTKSFNRGEC",0.8,1.3,1.3,2.1,0.9
"Clone 7 (pVxK7b-037-hum07-LC / pVxK7b-037-hum07-HC) (antibody, human IgG1, kappa, V domains shown) VH: QVQLQESGPGLVKPGATVKISCKVSGYTFTNYYVFWVRQARGQRLEWIGDINPVNGDTNFNEKFKNRVTITADKSTSTAYMELSSLRSEDTAVYYCARGGYTMDYWGQGTLVTVSS VL: DIVMTQTPLSLPVTPGEPASISCRSSQSLVHSNGNTYLHWYLQKPGQSPQLLIYKVSYRFSGVPDRFSGSGSGTDFTLKISRVEAEDVGVYYCSQNTHVPRTFGQGTKVEIKR",0.5,0.9,0.8,0.8,0.4
"Clone 4 (pVxK7b-037-hum04-LC / pVxK7b-037-hum04-HC) (antibody, human IgG1, kappa, V domains shown) VH: QVQLQESGPGLVKPSQTLSLTCTVSGYTFTNYYVFWVRQAPGKGLEWVSDINPVNGDTNFNEKFKNRVTISVDTSKNQFSLKLSSVTAADTAVYYCARGGYTMDYWGQGTLVTVSS VL: DIQMTQSPSSLSASVGDRVTITCRSSQSLVHSNGNTYLHWYLQKPGQSPQLLIYKVSYRFSGIPARFSGSGSGTEFTLTISSLQSEDFAVYYCSQNTHVPRTFGQGTKVEIKR",0.6,0.6,0.6,1,0.6

# Now from value to binder:
mean fluorescence relative to chimeric antibody [1] [ratio],mean fluorescence relative to chimeric antibody [2] [ratio],mean fluorescence relative to chimeric antibody [3] [ratio],mean fluorescence relative to chimeric antibody [4] [ratio],mean fluorescence relative to chimeric antibody [5] [ratio],Binder
1,1.2,1.5,2.2,1.3,"Clone 18 (pVxK7b-037-hum18-LC / pVxK7b-037-hum18-HC) (antibody, human IgG1, kappa, V domains shown) VH: EVQLVQSGAEVKKPGESLRISCKGSGYTFTNYYVFWIRQSPSRGLEWLGDINPVNGDTNFNEKFKNRVTITADKSTSTAYMELSSLRSEDTAVYYCARGGYTMDYWGQGTLVTVSS VL: EIVLTQSPATLSVSPGERATLSCRSSQSLVHSNGNTYLHWYQQKPGQAPRLLIYKVSYRFSGVPSRFSGSGSGTDFTFTISSLEAEDAATYYCSQNTHVPRTFGQGTKVEIKR"
0.7,0.8,0.8,1.2,0.7,"Clone 8 (pVxK7b-037-hum08-LC / pVxK7b-037-hum08-HC) (antibody, human IgG1, kappa) heavy: not shown light: DIVMTQTPLSLPVTPGEPASISCRSSQSLVHSNGNTYLHWYQQKPGKAPKLLIYKVSYRFSGVPDRFSGSGSGTDFTLKISRVEAEDVGVYYCSQNTHVPRTFGQGTKVEIKRTVAAPSVFIFPPSDEQLKSGTASVVCLLNNFYPREAKVQWKVDNALQSGNSQESVTEQDSKDSTYSLSSTLTLSKADYEKHKVYACEVTHQGLSSPVTKSFNRGEC"
0.8,1.1,1,1.2,0.7,"Clone 24 (pVxK7b-037-hum24-LC / pVxK7b-037-hum24-HC) (antibody, human IgG1, kappa, V domains shown, also called Cl 24) VH: QVQLQESGPGLVKPGATVKISCKVSGYTFTNYYVFWVRQARGQRLEWIGDINPVNGDTNFNEKFKNRVTITADKSTSTAYMELSSLRSEDTAVYYCARGGYTMDYWGQGTLVTVSS VL: AIQLTQSPSSLSASVGDRVTITCRSSQSLVHSNGNTYLHWYQQKPGQAPRLLIYKVSYRFSGVPSRFSGSGSGTEFTLTISSLQPDDFATYYCSQNTHVPRTFGQGTKVEIKR"
0.8,1.2,0.8,1.2,0.7,"Clone 11 (pVxK7b-037-hum11-LC / pVxK7b-037-hum11-HC) (antibody, human IgG1, kappa, V domains shown, also called Cl 11) VH: QVQLQESGPGLVKPGATVKISCKVSGYTFTNYYVFWVRQARGQRLEWIGDINPVNGDTNFNEKFKNRVTITADKSTSTAYMELSSLRSEDTAVYYCARGGYTMDYWGQGTLVTVSS VL: EIVLTQSPATLSVSPGERATLSCRSSQSLVHSNGNTYLHWYQQKPGQAPRLLIYKVSYRFSGVPSRFSGSGSGTDFTFTISSLEAEDAATYYCSQNTHVPRTFGQGTKVEIKR"
0.8,1.4,0.9,1.3,0.6,"Clone 12 (pVxK7b-037-hum12-LC / pVxK7b-037-hum12-HC) (antibody, human IgG1, kappa, V domains shown) VH: QVQLQESGPGLVKPGATVKISCKVSGYTFTNYYVFWVRQARGQRLEWIGDINPVNGDTNFNEKFKNRVTITADKSTSTAYMELSSLRSEDTAVYYCARGGYTMDYWGQGTLVTVSS VL: DIVMTQTPLSLPVTPGEPASISCRSSQSLVHSNGNTYLHWYQQKPGKAPKLLIYKVSYRFSGVPDRFSGSGSGTDFTLKISRVEAEDVGVYYCSQNTHVPRTFGQGTKVEIKR"
